± gives the uncertainty stated by the source.
Assay: self-splicing fitness, log relative to wild type (ln ratio); higher = more splicing; Tetrahymena group I intron in knt gene, E. coli kanamycin selection, DiMSum; sequences stand for … in CUCUCU…GGAGGGAAAAGUUAUCAGGCAUGCACCUGGUAGCUAGUCUUUAAACCAAUAGAUUGCAUCGGUUUAAAAGGCAAGACCGUCAAAUUGCGGGAAAGGGGUCAACAGCCGUUCAGUACCAAGUCUCAGGGGAAACUUUGAGAUGGCCUUGCAAAGGGUAUGGUAAUAAGCUGACGGACAUGGUCCUAACCACGCAGCCAAGUCCUAAGUCAACAGAUCUUCUGUUGAUAUGGAUGCAGUUCACAGACUAAAUGUCGGUCGGGGAAGAUGUAUUCUUCUCAUAAGAUAUAGUCGGACCUCUCCUUAAUGGGAGCUAGCGGAUGAAGUGAUGCAACACUGGAGCCGCUGGGAACUAAUUUGUAUGCGAAAGUAUAUUGAUUAGUUUUGGAGUACUCGUGGUCG
How it was run: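 A randomised library covering all eight P1ex-region intron nucleotides was built with the intron in the knt kanamycin-resistance gene on pET-22b(+) and held in E. coli BL21(DE3). Cells were grown overnight at 37°C or 30°C on LB agar, with or without 25 μg/mL kanamycin, plus 100 μg/mL carbenicillin, 50 μM IPTG and 0.2% rhamnose, and pooled colonies were amplicon-sequenced on an Illumina HiSeq 2500. DiMSum fitness is the error-weighted combination of wild-type-normalised replicate fold changes, kanamycin versus none.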

| Sequence | self-splicing fitness (ln) (30 °C) | self-splicing fitness (ln) (37 °C) |
| --- | --- | --- |
| GACCAGCAAUAUUACGCCAU | -3.59 ± 0.17 | -2.09 ± 0.13 |
| GACCAGCAAUAUUACGCCCA | -0.923 ± 0.16 | 0.179 ± 0.19 |
| GACCAGCAAUAUUACGCCUA | -0.572 ± 0.11 | 0.226 ± 0.12 |
| GACCAGCAAUAUUACGCUCG | -0.964 ± 0.13 | -0.766 ± 0.12 |
| GACCAGCAAUAUUACGCUUU | -0.00419 ± 0.078 | -0.213 ± 0.1 |
| GACCAGCAAUAUUACGGAAG | -1.42 ± 0.08 | -0.75 ± 0.088 |
| GACCAGCAAUAUUACGGCGA | -0.195 ± 0.075 | 0.13 ± 0.11 |
| GACCAGCAAUAUUACGGGCA | -0.306 ± 0.078 | 0.16 ± 0.096 |
| GACCAGCAAUAUUACGGGUG | -1.85 ± 0.068 | -1.36 ± 0.072 |
| GACCAGCAAUAUUACGGUGG | -2.38 ± 0.077 | -0.875 ± 0.087 |
| GACCAGCAAUAUUACGGUUC | -5.29 ± 0.25 | -2.73 ± 0.14 |
| GACCAGCAAUAUUACGGUUU | -2.44 ± 0.083 | -0.744 ± 0.079 |
| GACCAGCAAUAUUACGUAGG | -2.31 ± 0.075 | -1.62 ± 0.09 |
| GACCAGCAAUAUUACGUAUG | -1.75 ± 0.065 | -0.824 ± 0.076 |
| GACCAGCAAUAUUACGUCAG | -4.79 ± 0.32 | -2.85 ± 0.27 |
| GACGAGCAAUAUUACGAACA | -0.347 ± 0.3 | -1.44 ± 0.3 |
| GACGAGCAAUAUUACGACAC | -3.03 ± 0.49 | -1.55 ± 0.15 |
| GACGAGCAAUAUUACGACUU | -0.586 ± 0.17 | 0.25 ± 0.19 |
| GACGAGCAAUAUUACGAGAG | -3.77 ± 0.34 | -0.809 ± 0.18 |
| GACGAGCAAUAUUACGAGCG | -1.88 ± 0.23 | – |
| GACGAGCAAUAUUACGAGGG | -3.12 ± 0.25 | -2.97 ± 0.35 |
| GACGAGCAAUAUUACGAUAA | – | -2.09 ± 0.43 |
| GACGAGCAAUAUUACGAUAC | -4.85 ± 0.28 | -2.16 ± 0.2 |
| GACGAGCAAUAUUACGAUAG | – | -3.92 ± 0.46 |
| GACGAGCAAUAUUACGAUCU | -2.04 ± 0.15 | -1.13 ± 0.15 |

| Sequence | self-splicing fitness (ln) (30 °C) | self-splicing fitness (ln) (37 °C) |
| --- | --- | --- |
| GACGAGCAAUAUUACGAUUG | -4.17 ± 0.27 | -1.09 ± 0.13 |
| GACGAGCAAUAUUACGCACG | -3.63 ± 0.23 | -2.61 ± 0.25 |
| GACGAGCAAUAUUACGCGAU | -2.42 ± 0.26 | -2.36 ± 0.45 |
| GACGAGCAAUAUUACGGAGA | – | -2.9 ± 0.38 |
| GACGAGCAAUAUUACGGCAU | -1.4 ± 0.14 | -0.955 ± 0.17 |
| GACGAGCAAUAUUACGGUGA | -3.52 ± 0.23 | -2.05 ± 0.26 |
| GACGAGCAAUAUUACGGUUG | -2.82 ± 0.13 | -1.76 ± 0.13 |
| GACGAGCAAUAUUACGUCCG | -3.22 ± 0.27 | -2.69 ± 0.36 |
| GACGAGCAAUAUUACGUCGC | -3.25 ± 0.47 | -0.634 ± 0.35 |
| GACGAGCAAUAUUACGUGUU | -3.18 ± 0.16 | -3.09 ± 0.19 |
| GACUAGCAAUAUUACGAACA | -1.02 ± 0.16 | -0.254 ± 0.17 |
| GACUAGCAAUAUUACGACCA | -0.781 ± 0.17 | 0.287 ± 0.18 |
| GACUAGCAAUAUUACGACCU | 0.114 ± 0.093 | -0.756 ± 0.095 |
| GACUAGCAAUAUUACGACUU | 0.355 ± 0.06 | 0.58 ± 0.08 |
| GACUAGCAAUAUUACGAGCG | -1.57 ± 0.1 | -0.592 ± 0.12 |
| GACUAGCAAUAUUACGCACU | -0.55 ± 0.11 | 0.415 ± 0.16 |
| GACUAGCAAUAUUACGCAGU | -3.21 ± 0.31 | -2.17 ± 0.2 |
| GACUAGCAAUAUUACGCCCA | -0.026 ± 0.17 | 0.443 ± 0.24 |
| GACUAGCAAUAUUACGCGCC | -2.11 ± 0.32 | -0.0214 ± 0.39 |
| GACUAGCAAUAUUACGGAUU | -0.975 ± 0.066 | -0.588 ± 0.092 |
| GACUAGCAAUAUUACGGGAG | -0.663 ± 0.096 | 0.0641 ± 0.12 |
| GACUAGCAAUAUUACGGGUU | -3.92 ± 0.24 | -2.74 ± 0.27 |
| GACUAGCAAUAUUACGGUAC | -2.1 ± 0.2 | -1.2 ± 0.18 |
| GACUAGCAAUAUUACGGUCG | -2.05 ± 0.09 | -0.165 ± 0.1 |
